Consider 1 protein from publication PMC4425898, “High yield purification of Helicobacter pylori neutrophil-activating protein overexpressed in Escherichia coli” (BMC Biotechnology, 2015).

This data set concerns the molecule itself. The data set can be described thus: native gel or EMSA; native-PAGE (10% acrylamide) of load, unbound, wash and elution fractions of DEAE Sephadex and DEAE Sepharose batch chromatography; 20 mM Tris-HCl, pH 7.0 to 9.0, 50 mM NaCl (1 M NaCl for elution), 4°C. A general note: Mobility shift assays separate free from complexed probe on a gel.

B1: Helicobacter pylori neutrophil-activating protein (natural protein)
chain: MKTFEILKHLQADAIVLFMKVHNFHWNVKGTDFFNVHKATEEIYEEFADMFDDLAERIVQLGHHPLVTLSEAIKLTRVKEETKTSFHSKDIFKEILEDYKYLEKEFKELSNTAEKEGDKVTVTYADDQLAKLQKSIWMLQAHLA
notes: subunit of about 17 kDa on SDS-PAGE; No tag is named; its own experiments show only an oligomer; also called HP-NAP; recombinant HP-NAP; source: E. coli BL21(DE3), plasmid pET42a-NAP; copies: 12
For B1, the binding result was “binds”.
